Laboratory results as given in paper PMC5472695.

Molecular target: His-tagged recombinant amelogenin (wild-type) (mouse) (UniProt P63277)
Assay: SDS PAGE with anti-amelogenin Western blot; crude 3% acetic acid E. coli extract and nickel column fractions; non-reducing SDS loading buffer, heated at 90°C for 1.5 min, 12% resolving gel; blot with rabbit anti-amelogenin antibody

stoichiometry N: 2
Substance: His-tagged recombinant amelogenin (wild-type) (from UniProt P63277 17-210) (natural protein)
